US20110064670A1, “METHOD TO IDENTIFY A PATIENT WITH AN INCREASED LIKELIHOOD OF RESPONDING TO AN ANTI-CANCER AGENT” (Genentech, Inc., priority 2009, published 2011)

System: non-tumor bearing mice
Test: Lymph pulsation frequency assay in non-tumor bearing mice
Format: in vivo, mouse
Conditions: acute injection, n=6 animals/group (FIG. 6B)
Procedure: Female Balb-c nude mice from Charles River Laboratory were used at 6-8 weeks of age. To establish baseline pulsation frequency and lymph node loading rates we imaged non-tumor bearing mice. In some cases mice were longitudinally imaged for pulsation, i.e., the same mouse was imaged daily over a 7-day period. Mice were anesthetized with 2% Isoflurane and maintained at 37° C. throughout experiments. A PulseOx probe was attached to the thigh (opposing injection site) to monitor heart rate before running pulsation assays.
For all experiments fluorescent dye injections were performed with 5 mg AlexaFluor680 conjugated to dextran 70 kd (MolecularProbes) in 1 ml sterile PBS. […]
Epi-fluorescence Microscopy Pulsatile flow activity was observed using an epifluorescence microscope (Prairie Technologies) equipped with a Cy5.5 Red filter set (Chroma), Halogen light source (ExFo Excite Series 120), 4× objective lens (Olympus) and a charge coupled device (CCD) camera (S97827, Olympus). […] Pulsation and heart rates were monitored (PulseOx) for stability for 10 minutes before video capture. […]
Digital videos (5 minutes) of pulsation were acquired with PictureFrame software (Optronics) using time lapse settings (282 ms exposure, no inter-frame delay, 5 minutes total acquisition time). Data was analyzed off-line from recorded time lapse videos. […]

B1: recombinant VEGF-C protein: recombinant VEGF-C protein injected acutely in non-tumor bearing mice (protein, UniProt P97953 108-223, looked up)
Vascular endothelial growth …: AHYNTEILKSIDNEWRKTQCMPREVCIDVGKEFGAATNTFFKPPCVSVYRCGGCCNSEGLQCMNTSTGYLSKTLFEITVPLSQGPKPVTISFANHTSCRCMSKLDVYRQVHSIIRR
**Q.** B1 was tested. Which lymph pulsation frequency did it give?
**A.** Its lymph pulsation frequency is “does not result in any significant change”.
